B1: Ube2T (enzyme)
chain: MQRASRLKRELHMLATEPPPGITCWQDKDQMDDLRAQILGGANTPYEKGVFKLEVIIPERYPFEPPQIRFLTPIYHPNIDSAGRICLDVLKLPPKGAWRPSLNIATVLTSIQLLMSEPNPDDPLMADISSEFKYNKPAFLKNARQWTEKHARQKQKADEEEMLDNLPEAGDSRVHNSTQKRKASQLVGIEKKFHPDV
B2: FANCL RING (FANCL^R) (domain or fragment)
chain: EIDFPARAILEKSDFTMDCGICYAYQLDGTIPDQVCDNSQCGQPFHQICLYEWLRGLLTSRQSFNIIFGECPYCSKPITLKMSGRKH
B3: Ube2T R84S (enzyme)
chain: MQRASRLKRELHMLATEPPPGITCWQDKDQMDDLRAQILGGANTPYEKGVFKLEVIIPERYPFEPPQIRFLTPIYHPNIDSAGSICLDVLKLPPKGAWRPSLNIATVLTSIQLLMSEPNPDDPLMADISSEFKYNKPAFLKNARQWTEKHARQKQKADEEEMLDNLPEAGDSRVHNSTQKRKASQLVGIEKKFHPDV
B4: Ube2T R84S+K91A+K95A (enzyme)
chain: MQRASRLKRELHMLATEPPPGITCWQDKDQMDDLRAQILGGANTPYEKGVFKLEVIIPERYPFEPPQIRFLTPIYHPNIDSAGSICLDVLALPPAGAWRPSLNIATVLTSIQLLMSEPNPDDPLMADISSEFKYNKPAFLKNARQWTEKHARQKQKADEEEMLDNLPEAGDSRVHNSTQKRKASQLVGIEKKFHPDV
B5: Ube2T T23R+W25Q (enzyme)
chain: MQRASRLKRELHMLATEPPPGIRCQQDKDQMDDLRAQILGGANTPYEKGVFKLEVIIPERYPFEPPQIRFLTPIYHPNIDSAGRICLDVLKLPPKGAWRPSLNIATVLTSIQLLMSEPNPDDPLMADISSEFKYNKPAFLKNARQWTEKHARQKQKADEEEMLDNLPEAGDSRVHNSTQKRKASQLVGIEKKFHPDV
B6: Ube2T K91A (enzyme)
chain: MQRASRLKRELHMLATEPPPGITCWQDKDQMDDLRAQILGGANTPYEKGVFKLEVIIPERYPFEPPQIRFLTPIYHPNIDSAGRICLDVLALPPKGAWRPSLNIATVLTSIQLLMSEPNPDDPLMADISSEFKYNKPAFLKNARQWTEKHARQKQKADEEEMLDNLPEAGDSRVHNSTQKRKASQLVGIEKKFHPDV
B7: Ube2T D32A+D33A+L92A (enzyme)
chain: MQRASRLKRELHMLATEPPPGITCWQDKDQMAALRAQILGGANTPYEKGVFKLEVIIPERYPFEPPQIRFLTPIYHPNIDSAGRICLDVLKAPPKGAWRPSLNIATVLTSIQLLMSEPNPDDPLMADISSEFKYNKPAFLKNARQWTEKHARQKQKADEEEMLDNLPEAGDSRVHNSTQKRKASQLVGIEKKFHPDV
B8: Ube2T K95A (enzyme)
chain: MQRASRLKRELHMLATEPPPGITCWQDKDQMDDLRAQILGGANTPYEKGVFKLEVIIPERYPFEPPQIRFLTPIYHPNIDSAGRICLDVLKLPPAGAWRPSLNIATVLTSIQLLMSEPNPDDPLMADISSEFKYNKPAFLKNARQWTEKHARQKQKADEEEMLDNLPEAGDSRVHNSTQKRKASQLVGIEKKFHPDV

How the values were obtained:
[1] = biological target: Xenopus laevis FANCD2 (xFANCD2) (Xenopus laevis); assay: MST
[2] = biological target: T1, FANCL URD-RING fragment (FANCL^UR) (human, UniProt Q9NW38 109-375); assay: ITC
T1 sequence: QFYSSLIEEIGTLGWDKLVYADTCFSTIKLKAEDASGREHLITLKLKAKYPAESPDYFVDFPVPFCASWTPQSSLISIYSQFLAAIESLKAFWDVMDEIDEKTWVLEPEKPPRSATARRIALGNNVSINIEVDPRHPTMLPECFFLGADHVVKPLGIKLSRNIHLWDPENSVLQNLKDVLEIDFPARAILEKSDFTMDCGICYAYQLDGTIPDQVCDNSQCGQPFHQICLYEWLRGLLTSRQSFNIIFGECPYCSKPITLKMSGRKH

Ube2T = biological target: B1; assay: ITC
Ube2T D32A+D33A+L92A = biological target: B7; assay: ITC
Ube2T T23R+W25Q = biological target: B5; assay: ITC

| Molecule | Kd [2] [nM] | binding result [2] | other results |
| --- | --- | --- | --- |
| Ube2T^1-152 (from UniProt Q9NPD8 1-152) (domain or fragment) | – | – | Kd [1]: 320000 nM |
| Ube2Tv3 in the Ube2T^1-152 background (E54R+P93G+P94G) (from UniProt Q9NPD8 1-152) (domain or fragment) | – | – | Kd [1]: 238000 nM |
| B1 | ~119 | – | – |
| B2 | – | – | Kd (Ube2T): ~253 nM; Kd (Ube2T D32A+D33A+L92A): ~253 nM; Kd (Ube2T T23R+W25Q): ~253 nM |
| B3 | – | binds | – |
| B4 | – | binds | – |
| B5 | 200 | – | – |
| B6 | – | binds | – |
| B7 | ~119 | – | – |
| B8 | – | binds | – |

From publication PMC7035956 (Nature chemical biology, 2019)
